# From PMC3315474
# Tested on: HSF-3xFLAG (Heat Shock Factor) (Drosophila (species not stated))
# Experiment: EMSA
# Conditions: Kd per HSF trimer, 20 mM HEPES pH 7.9, 100 mM NaCl, 3 mM MgCl2, 1 mM EDTA, 4 mM DTT, 10% glycerol, 0.1% NP-40, 300 ug/ml BSA, 10 ul, 200 amol probe, 30 min, room temperature
Substance,Kd [nM],other results
HSE chr2L:5009892 (42.6 pM),,Kd (Methods print 42.7 pM): 0.0426 nM
HSE chr2R:3529792 (308 pM),0.308,
HSE chr3L:4073542 (97.5 pM),0.0975,
HSE chr3L:13470978 (221 pM),,Kd (HSF up to 1.5 nM monomer): 0.221 nM
HSE chrX:3380775 (224 pM),0.224,
